Holding throughout (experiment): cell-based or functional assay
The target in test [1] is T1, human NPRA (human, UniProt P16066 33-1061).
T1 sequence (looked up): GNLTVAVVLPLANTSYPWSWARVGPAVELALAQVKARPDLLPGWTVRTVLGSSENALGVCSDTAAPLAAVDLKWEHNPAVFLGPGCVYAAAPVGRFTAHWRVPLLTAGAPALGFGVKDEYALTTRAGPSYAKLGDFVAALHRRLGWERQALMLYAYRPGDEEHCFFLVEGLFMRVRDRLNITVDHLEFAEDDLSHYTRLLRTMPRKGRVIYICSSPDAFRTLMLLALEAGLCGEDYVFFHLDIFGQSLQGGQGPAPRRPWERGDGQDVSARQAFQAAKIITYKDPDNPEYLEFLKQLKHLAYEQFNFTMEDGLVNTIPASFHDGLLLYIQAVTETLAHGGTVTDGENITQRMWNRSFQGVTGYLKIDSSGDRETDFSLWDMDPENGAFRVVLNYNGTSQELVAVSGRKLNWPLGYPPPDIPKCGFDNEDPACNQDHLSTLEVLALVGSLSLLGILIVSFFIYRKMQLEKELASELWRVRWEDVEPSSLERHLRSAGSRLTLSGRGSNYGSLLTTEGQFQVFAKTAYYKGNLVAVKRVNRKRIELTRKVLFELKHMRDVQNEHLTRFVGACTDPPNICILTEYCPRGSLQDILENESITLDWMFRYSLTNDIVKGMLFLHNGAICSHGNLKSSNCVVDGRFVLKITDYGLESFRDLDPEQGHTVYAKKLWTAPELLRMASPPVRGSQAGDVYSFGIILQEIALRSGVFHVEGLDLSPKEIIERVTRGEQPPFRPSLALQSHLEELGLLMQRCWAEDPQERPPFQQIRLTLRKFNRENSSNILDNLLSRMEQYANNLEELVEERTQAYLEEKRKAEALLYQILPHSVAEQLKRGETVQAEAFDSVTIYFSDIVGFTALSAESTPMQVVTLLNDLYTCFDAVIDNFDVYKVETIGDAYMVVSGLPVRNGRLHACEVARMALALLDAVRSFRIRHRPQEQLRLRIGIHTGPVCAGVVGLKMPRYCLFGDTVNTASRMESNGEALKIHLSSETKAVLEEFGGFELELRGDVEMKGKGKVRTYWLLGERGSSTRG

Test [2] addresses T2, rat ANP receptor (NPR-A) (rat, UniProt P18910 29-1057).
T2 sequence (looked up): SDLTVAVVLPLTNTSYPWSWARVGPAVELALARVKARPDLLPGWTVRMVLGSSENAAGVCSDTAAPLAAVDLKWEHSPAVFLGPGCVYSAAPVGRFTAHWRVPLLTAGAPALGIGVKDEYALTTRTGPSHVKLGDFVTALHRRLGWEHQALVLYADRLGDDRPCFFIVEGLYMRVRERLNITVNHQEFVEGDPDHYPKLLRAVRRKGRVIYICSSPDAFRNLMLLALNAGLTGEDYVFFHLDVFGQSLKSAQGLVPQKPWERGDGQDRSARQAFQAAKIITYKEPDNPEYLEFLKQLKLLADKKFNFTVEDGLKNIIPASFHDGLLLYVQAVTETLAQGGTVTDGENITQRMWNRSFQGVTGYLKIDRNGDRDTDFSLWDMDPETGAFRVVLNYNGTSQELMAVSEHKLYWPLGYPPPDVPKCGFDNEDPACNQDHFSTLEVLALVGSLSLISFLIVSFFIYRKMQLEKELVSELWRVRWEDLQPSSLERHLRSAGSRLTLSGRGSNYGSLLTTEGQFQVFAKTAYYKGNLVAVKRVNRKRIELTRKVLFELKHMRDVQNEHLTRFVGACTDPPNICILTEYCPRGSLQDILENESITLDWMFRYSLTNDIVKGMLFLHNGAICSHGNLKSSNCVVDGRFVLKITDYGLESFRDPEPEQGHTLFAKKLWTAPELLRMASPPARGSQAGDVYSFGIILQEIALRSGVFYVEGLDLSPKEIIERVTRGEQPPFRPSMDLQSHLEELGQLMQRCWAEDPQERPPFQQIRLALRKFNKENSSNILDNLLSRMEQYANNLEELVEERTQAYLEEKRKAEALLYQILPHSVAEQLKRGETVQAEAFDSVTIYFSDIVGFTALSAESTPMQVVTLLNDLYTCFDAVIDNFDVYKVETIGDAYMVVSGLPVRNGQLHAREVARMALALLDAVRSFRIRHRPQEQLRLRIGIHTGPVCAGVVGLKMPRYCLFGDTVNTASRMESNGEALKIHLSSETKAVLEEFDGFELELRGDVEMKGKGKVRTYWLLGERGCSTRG

Test [3] has as its target T3, rat CNP receptor (NPR-B) (rat, UniProt P16067 17-1047).
T3 sequence (looked up): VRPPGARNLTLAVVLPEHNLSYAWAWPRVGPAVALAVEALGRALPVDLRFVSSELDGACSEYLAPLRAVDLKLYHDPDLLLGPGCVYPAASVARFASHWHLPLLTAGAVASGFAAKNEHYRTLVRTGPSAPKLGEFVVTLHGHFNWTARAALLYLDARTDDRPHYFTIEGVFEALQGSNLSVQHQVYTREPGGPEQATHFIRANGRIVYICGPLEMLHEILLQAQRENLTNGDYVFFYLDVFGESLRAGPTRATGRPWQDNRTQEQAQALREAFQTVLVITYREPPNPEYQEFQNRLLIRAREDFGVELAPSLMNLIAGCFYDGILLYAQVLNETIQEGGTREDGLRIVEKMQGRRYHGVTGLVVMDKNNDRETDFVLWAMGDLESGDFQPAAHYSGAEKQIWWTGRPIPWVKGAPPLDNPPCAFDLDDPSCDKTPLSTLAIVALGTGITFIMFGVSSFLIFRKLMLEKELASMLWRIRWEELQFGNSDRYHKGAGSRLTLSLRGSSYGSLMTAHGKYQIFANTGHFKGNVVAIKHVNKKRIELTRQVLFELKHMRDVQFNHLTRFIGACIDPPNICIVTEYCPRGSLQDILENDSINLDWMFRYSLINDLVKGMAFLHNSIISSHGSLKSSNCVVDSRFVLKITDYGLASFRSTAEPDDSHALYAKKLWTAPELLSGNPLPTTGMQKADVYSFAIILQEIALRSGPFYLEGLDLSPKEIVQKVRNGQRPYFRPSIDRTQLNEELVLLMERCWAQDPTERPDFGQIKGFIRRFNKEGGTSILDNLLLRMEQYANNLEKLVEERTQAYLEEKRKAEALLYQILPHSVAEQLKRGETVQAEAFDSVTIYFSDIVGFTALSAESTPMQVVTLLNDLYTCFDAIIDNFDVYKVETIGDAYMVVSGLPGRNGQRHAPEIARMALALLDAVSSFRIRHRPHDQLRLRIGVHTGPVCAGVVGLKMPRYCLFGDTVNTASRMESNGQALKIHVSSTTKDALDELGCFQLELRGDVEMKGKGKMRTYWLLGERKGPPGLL

B1: TPP-10355 (antibody, human IgG1, lambda)
heavy: not shown
light: QSVLTQPPSVSGAPGQRVTISCTGSSSNIGAGYDVHWYQQLPGTAPKLLIYGNSNRPSGVPDRFSGSKSGTSASLAITGLQAEDEADYYCAAWNPNPNPNPNPNGGSGGSLRRSSCFGGRMDRIGAQSGLGCNSFRYGSNPNPNPNPNPNVFGSGTKVTVLGQPKAAPSVTLFPPSSEELQANKATLVCLISDFYPGAVTVAWKADSSPVKAGVETTTPSKQSNNKYAASSYLSLTPEQWKSHRSYSCQVTHEGSTVEKTVAPTECS
B1: in test [1], the activity rcs stood at 94%, the “average rel logEC50” value was -0.2 log vs TPP-5661, the rel. activity rcs is 0.1 log vs TPP-5661 and the “rel. logEC50 pcs 2” value was -0.6 log vs TPP-5661. In test [1], the “rel. logEC50 pcs 3” value came to 0.2 log vs TPP-5661 and the “rel. logEC50 pcs 4” value is -0.3 log vs TPP-5661.

B2: TPP-11156 (antibody, human IgG1, lambda)
heavy: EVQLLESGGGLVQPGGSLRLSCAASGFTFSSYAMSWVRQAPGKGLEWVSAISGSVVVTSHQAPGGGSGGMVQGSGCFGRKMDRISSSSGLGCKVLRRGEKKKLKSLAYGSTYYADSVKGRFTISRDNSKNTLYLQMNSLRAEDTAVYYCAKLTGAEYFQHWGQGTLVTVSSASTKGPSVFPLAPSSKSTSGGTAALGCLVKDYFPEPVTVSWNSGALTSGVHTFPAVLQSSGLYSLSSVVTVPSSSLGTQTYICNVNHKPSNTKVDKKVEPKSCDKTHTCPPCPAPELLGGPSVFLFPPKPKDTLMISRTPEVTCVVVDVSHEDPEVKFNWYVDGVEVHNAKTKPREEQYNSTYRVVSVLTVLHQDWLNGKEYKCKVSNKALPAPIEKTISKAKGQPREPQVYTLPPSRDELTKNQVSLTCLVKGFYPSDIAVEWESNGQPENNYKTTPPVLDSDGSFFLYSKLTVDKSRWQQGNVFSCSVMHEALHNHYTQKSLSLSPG
light: QSVLTQPPSVSGAPGQRVTISCTGSSSNIGAGYDVHWYQQLPGTAPKLLIYGNSNRPSGVPDRFSGSKSGTSASLAITGLQAEDEADYYCQSYDSSLSGVVFGGGTKLTVLGQPKAAPSVTLFPPSSEELQANKATLVCLISDFYPGAVTVAWKADSSPVKAGVETTTPSKQSNNKYAASSYLSLTPEQWKSHRSYSCQVTHEGSTVEKTVAPTECS
Regarding B2, in test [2], the “EC50, fluorescence signal of rat NPR-A cGMP reporter CHO cell line (GCaMP6/CNGA2)” value (“EC50, fluorescence signal … (GCaMP6/CNGA2)” below) was 1200 nM and the “EC50 on rNPRA reporter cells” value is greater than 1000 nM.

B3: TPP-9465 (antibody)
heavy: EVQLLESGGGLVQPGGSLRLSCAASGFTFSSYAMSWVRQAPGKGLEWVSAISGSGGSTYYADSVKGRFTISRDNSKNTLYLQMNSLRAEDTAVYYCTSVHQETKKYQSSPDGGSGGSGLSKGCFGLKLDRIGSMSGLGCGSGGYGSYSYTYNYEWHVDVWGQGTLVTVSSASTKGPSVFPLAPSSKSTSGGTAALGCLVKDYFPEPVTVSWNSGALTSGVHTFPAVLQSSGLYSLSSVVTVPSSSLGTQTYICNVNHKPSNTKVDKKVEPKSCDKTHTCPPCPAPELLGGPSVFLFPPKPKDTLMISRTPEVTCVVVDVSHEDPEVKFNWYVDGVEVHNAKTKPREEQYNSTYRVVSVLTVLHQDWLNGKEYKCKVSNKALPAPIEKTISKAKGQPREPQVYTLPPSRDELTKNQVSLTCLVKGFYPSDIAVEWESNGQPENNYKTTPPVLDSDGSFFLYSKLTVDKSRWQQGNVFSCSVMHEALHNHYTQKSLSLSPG
light: QSVLTQPPSVSGAPGQRVTISCTGSSSNIGAGYDVHWYQQLPGTAPKLLIYGNSNRPSGVPDRFSGSKSGTSASLAITGLQAEDEADYYCQSYDSSLSGVVFGGGTKLTVLGQPKAAPSVTLFPPSSEELQANKATLVCLISDFYPGAVTVAWKADSSPVKAGVETTTPSKQSNNKYAASSYLSLTPEQWKSHRSYSCQVTHEGSTVEKTVAPTECS
For B3, the “EC50, luminescence signal of rat NPR-B cGMP reporter cell line” value (“EC50, luminescence signal” below) in test [3] is 5.2 nM.

B4: TPP-10290 (antibody)
heavy: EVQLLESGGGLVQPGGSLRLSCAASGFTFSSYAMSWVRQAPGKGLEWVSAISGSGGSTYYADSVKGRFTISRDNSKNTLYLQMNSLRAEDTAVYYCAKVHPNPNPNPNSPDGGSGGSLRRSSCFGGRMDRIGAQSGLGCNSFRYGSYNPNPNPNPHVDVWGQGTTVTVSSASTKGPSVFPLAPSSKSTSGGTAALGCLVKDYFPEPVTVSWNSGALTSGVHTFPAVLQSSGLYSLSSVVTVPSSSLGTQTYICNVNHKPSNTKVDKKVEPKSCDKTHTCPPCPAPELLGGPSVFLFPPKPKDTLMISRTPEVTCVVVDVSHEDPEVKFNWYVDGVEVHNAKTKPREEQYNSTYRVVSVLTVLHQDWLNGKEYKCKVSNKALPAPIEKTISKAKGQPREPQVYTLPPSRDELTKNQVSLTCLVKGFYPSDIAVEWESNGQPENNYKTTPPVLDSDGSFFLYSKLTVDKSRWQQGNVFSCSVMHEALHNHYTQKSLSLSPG
light: QSVLTQPPSVSGAPGQRVTISCTGSSSNIGAGYDVHWYQQLPGTAPKLLIYGNSNRPSGVPDRFSGSKSGTSASLAITGLQAEDEADYYCQSYDSSLSGVVFGGGTKLTVLGQPKAAPSVTLFPPSSEELQANKATLVCLISDFYPGAVTVAWKADSSPVKAGVETTTPSKQSNNKYAASSYLSLTPEQWKSHRSYSCQVTHEGSTVEKTVAPTECS
For the molecule B4, in test [1], the activity rcs was found to be 84%, the “average rel logEC50” value was -0.5 log vs TPP-5661, the “rel. logEC50 pcs 2” value is -0.8 log vs TPP-5661 and the “rel. logEC50 pcs 3” value was -0.1 log vs TPP-5661.

B5: TPP-12377 (antibody)
heavy: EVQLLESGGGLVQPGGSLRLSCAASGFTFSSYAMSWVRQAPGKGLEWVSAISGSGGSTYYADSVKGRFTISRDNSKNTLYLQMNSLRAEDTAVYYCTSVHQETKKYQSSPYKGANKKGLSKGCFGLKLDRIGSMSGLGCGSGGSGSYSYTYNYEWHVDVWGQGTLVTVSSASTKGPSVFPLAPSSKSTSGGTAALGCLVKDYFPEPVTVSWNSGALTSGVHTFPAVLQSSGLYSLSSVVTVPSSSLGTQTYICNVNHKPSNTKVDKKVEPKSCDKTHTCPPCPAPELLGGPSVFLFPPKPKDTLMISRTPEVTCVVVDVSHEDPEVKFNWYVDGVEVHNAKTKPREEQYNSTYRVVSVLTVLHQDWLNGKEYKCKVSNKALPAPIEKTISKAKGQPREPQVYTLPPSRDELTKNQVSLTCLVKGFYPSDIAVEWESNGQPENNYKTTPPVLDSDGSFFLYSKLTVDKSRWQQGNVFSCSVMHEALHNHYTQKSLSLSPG
light: QSVLTQPPSVSGAPGQRVTISCTGSSSNIGAGYDVHWYQQLPGTAPKLLIYGNSNRPSGVPDRFSGSKSGTSASLAITGLQAEDEADYYCQSYDSSLSGVVFGGGTKLTVLGQPKAAPSVTLFPPSSEELQANKATLVCLISDFYPGAVTVAWKADSSPVKAGVETTTPSKQSNNKYAASSYLSLTPEQWKSHRSYSCQVTHEGSTVEKTVAPTECS
Regarding B5, the “EC50, luminescence signal” value in test [3] was 4.1 nM.

B6: TPP-12897 (antibody)
heavy: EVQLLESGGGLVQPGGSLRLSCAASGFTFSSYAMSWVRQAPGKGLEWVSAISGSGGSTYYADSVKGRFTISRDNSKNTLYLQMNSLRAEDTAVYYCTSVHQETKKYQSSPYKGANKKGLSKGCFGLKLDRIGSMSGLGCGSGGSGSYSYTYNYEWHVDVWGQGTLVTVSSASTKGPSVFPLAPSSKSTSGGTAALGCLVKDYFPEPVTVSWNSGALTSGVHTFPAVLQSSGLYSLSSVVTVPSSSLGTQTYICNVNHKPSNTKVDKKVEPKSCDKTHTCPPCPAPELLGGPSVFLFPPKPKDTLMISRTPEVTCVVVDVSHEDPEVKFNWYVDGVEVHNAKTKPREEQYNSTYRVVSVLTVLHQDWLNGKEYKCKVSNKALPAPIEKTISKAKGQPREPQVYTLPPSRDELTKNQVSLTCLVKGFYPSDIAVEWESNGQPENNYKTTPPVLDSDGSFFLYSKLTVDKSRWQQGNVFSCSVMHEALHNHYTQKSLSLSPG
light: QSVLTQPPSVSGAPGQRVTISCTGSSSNIGAGYDVHWYQQLPGTAPKLLIYGNSNRPSGVPDRFSGSKSGTSASLAITGLQAEDEADYYCQSYDSSLDGVVFGGGTKLTVLGQPKAAPSVTLFPPSSEELQANKATLVCLISDFYPGAVTVAWKADSSPVKAGVETTTPSKQSNNKYAASSYLSLTPEQWKSHRSYSCQVTHEGSTVEKTVAPTECS
Consider B6, for which the “EC50, luminescence signal” value in test [3] amounted to 10 nM.

B7: TPP-9902 (antibody)
heavy: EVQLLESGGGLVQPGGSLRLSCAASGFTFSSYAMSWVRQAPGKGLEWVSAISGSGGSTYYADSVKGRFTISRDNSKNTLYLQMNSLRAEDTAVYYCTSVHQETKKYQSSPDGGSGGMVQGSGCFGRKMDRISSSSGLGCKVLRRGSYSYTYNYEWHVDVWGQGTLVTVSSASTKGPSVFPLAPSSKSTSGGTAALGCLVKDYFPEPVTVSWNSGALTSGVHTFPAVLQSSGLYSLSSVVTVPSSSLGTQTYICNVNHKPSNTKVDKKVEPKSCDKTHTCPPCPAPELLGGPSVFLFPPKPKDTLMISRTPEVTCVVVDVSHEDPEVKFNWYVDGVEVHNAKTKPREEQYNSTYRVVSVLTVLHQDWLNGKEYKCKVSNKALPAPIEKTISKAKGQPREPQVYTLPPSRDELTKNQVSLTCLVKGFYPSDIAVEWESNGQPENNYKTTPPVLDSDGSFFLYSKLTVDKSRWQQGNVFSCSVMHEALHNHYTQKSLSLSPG
light: QSVLTQPPSVSGAPGQRVTISCTGSSSNIGAGYDVHWYQQLPGTAPKLLIYGNSNRPSGVPDRFSGSKSGTSASLAITGLQAEDEADYYCQSYDSSLSGVVFGGGTKLTVLGQPKAAPSVTLFPPSSEELQANKATLVCLISDFYPGAVTVAWKADSSPVKAGVETTTPSKQSNNKYAASSYLSLTPEQWKSHRSYSCQVTHEGSTVEKTVAPTECS
Turning to B7, in test [2], the “EC50, fluorescence signal … (GCaMP6/CNGA2)” value turned out to be 2300 nM and the “EC50 on rNPRA reporter cells” value is greater than 1000 nM.

B8: TPP-10992 (antibody, human IgG4 S228P, lambda)
heavy: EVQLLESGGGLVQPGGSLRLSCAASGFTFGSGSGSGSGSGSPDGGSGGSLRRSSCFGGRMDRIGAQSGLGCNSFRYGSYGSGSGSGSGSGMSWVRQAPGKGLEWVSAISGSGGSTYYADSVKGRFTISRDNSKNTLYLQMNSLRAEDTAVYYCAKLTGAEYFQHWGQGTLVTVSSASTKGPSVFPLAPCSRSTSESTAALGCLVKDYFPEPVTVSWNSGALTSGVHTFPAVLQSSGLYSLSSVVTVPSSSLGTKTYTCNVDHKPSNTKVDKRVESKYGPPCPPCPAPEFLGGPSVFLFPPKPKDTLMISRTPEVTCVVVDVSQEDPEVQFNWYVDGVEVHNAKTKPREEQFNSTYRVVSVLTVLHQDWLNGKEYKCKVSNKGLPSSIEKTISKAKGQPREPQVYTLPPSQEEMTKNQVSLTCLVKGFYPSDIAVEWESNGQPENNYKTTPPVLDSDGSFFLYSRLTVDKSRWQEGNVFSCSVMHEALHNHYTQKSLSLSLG
light: QSVLTQPPSVSGAPGQRVTISCTGSSSNIGAGYDVHWYQQLPGTAPKLLIYGNSNRPSGVPDRFSGSKSGTSASLAITGLQAEDEADYYCQSYDSSLSGVVFGGGTKLTVLGQPKAAPSVTLFPPSSEELQANKATLVCLISDFYPGAVTVAWKADSSPVKAGVETTTPSKQSNNKYAASSYLSLTPEQWKSHRSYSCQVTHEGSTVEKTVAPTECS
For the molecule B8, the “EC50, fluorescence signal … (GCaMP6/CNGA2)” value in test [2] was 180 nM.

B9: TPP-10361 (antibody, human IgG1, lambda)
heavy: not shown
light: QSVLTQPPSVSGAPGQRVTISCTGSSSNIGAGYDVHWYQQLPGTAPKLLIYGSGSGSGSGSGSPDGGSGGSLRRSSCFGGRMDRIGAQSGLGCNSFRYGSYGSGGSGSGSGNRPSGVPDRFSGSKSGTSASLAITGLQAEDEADYYCQSYDSSLSGVVFGGGTKLTVLGQPKAAPSVTLFPPSSEELQANKATLVCLISDFYPGAVTVAWKADSSPVKAGVETTTPSKQSNNKYAASSYLSLTPEQWKSHRSYSCQVTHEGSTVEKTVAPTECS
Consider B9, for which, in test [1], the activity rcs worked out at 20%, the “average rel logEC50” value was -0.1 log vs TPP-5661, the rel. activity rcs was -0.1 log vs TPP-5661 and the “rel. logEC50 pcs 5” value was -0.1 log vs TPP-5661.
